Measured values from US8691960B2, “Oxidoreductases for enantioselective reactions” (Duke University, priority 2012, dated 2014).
Changes are numbered by the printed parent chain. In names and notes the source's numbering stands. Like-named read-outs stand apart in the source and are kept apart here.

Legend:
[1] = NADH oxidation with 2-oxoadipate plus CO2 added as NaHCO3 (reductive carboxylation); assay type: biochemical
Method: (§1) NADH, 2-oxoadipate, 2-oxoglutarate, 2-heptandioate, and MgCl2 were from Sigma. Standard reaction mixes contained 15 mM 2-oxoadipate, 100 μM NADH, and a reaction buffer with final concentrations of 20 mM MgCl2 and 500 mM HEPES, pH 7.3. NADH oxidation was monitored by the decrease in fluorescence with excitation of 340 nm and emission of 450 nm on a PolarSTAR Optima plate reader (BMG Labtech). Fluorescence monitored reactions were carried out in 10-μL volumes in a 384-well black microplate (Greiner 788076) covered with clear optical film. The levels of fluorescence were converted to NADH concentrations based on standards of NADH in reaction buffer containing BSA. Reactions with high amounts of NADH were monitored by the UV absorbance of NADH at 340 nm in 40-μL reaction volumes in clear 96-well plates.
(§2) Reaction rates are NADH oxidation per unit time per unit of purified enzyme or crude lysate and 1 Unit (U) is 1 μmolNADH min^−1 mgenzyme^−1. Rates are initial rates calculated by least squares linear regression on the first 10 minutes of the reaction. For KM determination, concentrations of substrate/cofactors at least 5×-higher than the KM were used, while the species of interest was varied in concentration; substrate/cofactor concentrations: 500 μM NADH; 15 mM 2-oxoadipate; 20 mM MgCl2. Reported α-hydroxyadipate (2-hydroxy adpic acid) Vmax values were obtained from 2-oxoadipate KM determination experiments. Michaelis-Menten KM and Vmax parameters were estimated by fitting data to a curve using nonlinear regression in GraphPad Prism 5.0 (GraphPad Software, La Jolla, Calif.).

[2] = literature; cited from earlier work
[3] = Enantiospecific LC-MS/MS quantification of (R)- and (S)-2-hydroxyadipate product; assay type: biochemical; details: for Enantiomeric Excess: Table 3, (R)-2-hydroxyadipate product
Method: Quantitative, enantiospecific LC-MS/MS was performed based on the procedure described for 2-hydroxyglutarate. Jin et al., PLoS one 6, e16812: 1-8 (2011); Struys, et al., Clin. Chem. 50: 1391-1395 (2004). To 20 μL of reaction mix, 2 μL of 130 μg/mL of a racemic mixture of [3,3,4,4-^2H4]-2-hydroxyglutarate (internal standard) in water was added and the mixture dried by vacuum centrifuge (50° C., 15 min). The dry residue was treated with 50 mg/mL freshly prepared diacetyl-L-tartaric anhydride (Sigma) in dichloromethane/glacial acetic acid (4:1 by volume) and heated (75° C., 30 min). After drying (50° C., 15 min) the residue was dissolved in 100 μL of LC mobile phase A (see below) for analysis. An Agilent 1200 series HPLC (Santa Clara, Calif.) was used for liquid chromatography (LC) and a Sciex/Applied Biosystems API 3200 QTrap (Carlsbad, Calif.) was used for triple quadrupole mass spectrometry (MS/MS). Mobile phase A: water, 3% acetonitrile, 280 μL ammonium hydroxide (^˜25%), pH adjusted to 3.6 with formic acid (^˜98%). Mobile phase B: methanol. Analytical column: Kinetex C-18, 150×4.6 mm, 2.6 μm, and SafeGuard C-18 4×3 mm guard-column from Phenomenex (Torrance, Calif.). Column temperature: 45° C. Elution gradient at 1 mL/min flow rate: 0-1 min 0% B, 1-2 min 0-100% B, 2-3.5 min 100% B, 3.5-4 min 100-0% B, 4-10 min 0% B. Injection volume: 10 μL. Q1/Q3 (m/z) transitions were monitored: 377/161, 2-hydroxyadipate (2HA) and 367/151, [3,3,4,4-^2H4]-2-hydroxyglutarate (2HG-d4). To calibrate, 0, 0.16, 0.54, 1.8, 6, and 20 μg/mL 2-hydroxyadipate (Sigma), synthesized as described above, was analyzed in reaction buffer. (R)- and (S)-enantiomers were discriminated based on time of elution from the HPLC column, using the relative elution time for (R)-2-hydroxyglutarate compared to the racemic mixture of 2-hydroxyglutarate described previously to identify the (R)-2-hydroxyadipate enantiomer. Jin et al., PLoS one 6, e16812: 1-8 (2011). Standards were analyzed alongside experimental samples. Accuracy acceptance criteria were 85% for all but the lowest level (0.16 μg/mL, 80%).

[4] = NADH oxidation rate of purified HIDH enzymes with 2-oxoadipate (fluorescence / UV 340 nm); assay type: biochemical; details: ScHIDH, 15 mM 2-oxoadipate, 100 μM NADH, 0.4 μg purified enzyme
Method: as §1, §2
(§3) Assays were performed with 40 ng/μL enzyme, 15 mM 2-oxoadipate, 100 μM NADH, 20 mM MgCl2 and 100 mM HEPES, pH 7.3 in 10 or 20 μL volumes in 384-well black microplates. NADH concentration was monitored by the decrease in fluorescence (excitation wavelength: 340 nm; emission wavelength: 450 nm) on a fluorescent plate reader. The fluorescence intensities were converted to NADH concentrations based on NADH standards. Reactions with high amounts of NADH (>300 μM) were monitored by the UV absorbance of NADH at 340 nm in a 40 μL reaction volume in a clear 96-well plate on the same plate reader. Reactions with ScHIDH were carried out at 25° C. and reactions with TtHIDH were carried out at 45° C. Reported rates are initial rates from the first 10 minutes of reaction. For KM determination, concentrations of substrate at least 5×-higher than the KM were used (for NADH, 500 μM; for 2-oxoadipate, 15 mM) while the substrate of interest was varied in concentration. KM and Vmax were estimated by fitting data to equation (1) using nonlinear regression, where x is substrate concentration and y is the rate. y=Vmax·x/KM+x (1) Rate data for ScHIDH-R143C, -R143H, and -R143K are summarized in Table 3.

[5] = ScHIDH, literature; read-out: KM,HCO3, previous observation; cited from earlier work
[6] = literature (Lin et al. 2007); cited from earlier work
[7] = 2-hydroxyadipate dehydrogenase activity of crude bacterial lysates expressing ScHIDH mutants; assay type: biochemical; details: for reaction rate relative to ScHIDH-R143H: crude lysates, 15 mM 2-oxoadipate
Method: To obtain crude lysates, 0.5 mL of starter cultures generated as described above were added to 4.5 mL LB-Amp, shaken for 2 h, and shaken for an additional 2 h after induction with 1 mM IPTG. Pellets from these cultures were harvested by centrifugation at 4500×g at 4° C. These pellets were resuspended into 500 μL of Buffer A (0.2% Triton-X 100, 1 mM PMSF, 0.5 mM EDTA, 10 mM Tris, pH 7.5) on ice and sonicated for 6-cycles of 15 seconds each on ice on a Sonifer 250 (Branson). This was then spun down at 13,000×g at 4° C. for 15 min and the cleared lysates were normalized with additional lysis buffer to 700 ng/4 and stored at −80° C. as aliquots. Protein concentrations were determined using the BioRad Protein Assay reagent according to the manufacturer's instructions.
as §1, §2

[8] = Kinetic characterization of ScHIDH mutants: KM NADH; assay type: biochemical; details: Table 3; 15 mM 2-oxoadipate, 20 mM MgCl2, pH 7.3, 25° C.
Method: as §2, §3

[9] = Kinetic characterization of ScHIDH mutants: KM 2-oxoadipate and Vmax; assay type: biochemical; details: for Km / Vmax: Table 3; for Km: 40 ng/μL enzyme, 500 μM NADH, 20 mM MgCl2, pH 7.3, 25° C.; for Vmax: from 2-oxoadipate KM experiments
Method: as §2, §3

B1: TtHIDH-WT: wild type Thermus thermophilus homoisocitrate dehydrogenase (protein, listed as Thermus thermophilus)
chain: MAYRICLIEGDGIGHEVIPAARRVLEATGLPLEFVEAEAGWETFERRGTSVPEETVEKILSCHATLFGAATSPTRKVPGFFGAIRYLRRRLDLYANVRPAKSRPVPGSRPGVDLVIVRENTEGLYVEQERRYLDVAIADAVISKKASERIGRAALRIAEGRPRKTLHIAHKANVLPLTQGLFLDTVKEVAKDFPLVNVQDIIVDNCAMQLVMRPERFDVIVTTNLLGDILSDLAAGLVGGLGLAPSGNIGDTTAVFEPVHGSAPDIAGKGIANPTAAILSAAMMLDYLGEKEAAKRVEKAVDLVLERGPRTPDLGGDATTEAFTEAVVEALKSL
- rate of NADH consumption with NaHCO3 added ([1]; TtHIDH, 2-oxoadipate and NADH, CO2 added as NaHCO3): 0.14±0.022 U
- efficiency for 2-oxoglutarate relative to 2-oxoadipate [2]: 20 times
- increase of (R)-2-hydroxyadipate concentration after 2 h ([3]; TtHIDH, 100 μM NADH, 15 mM 2-oxoadipate, 45° C., 2 h): not observed

B2: ScHIDH-WT: wild type Saccharomyces cerevisiae homoisocitrate dehydrogenase (encoded by LYS12) (protein, listed as Saccharomyces cerevisiae)
chain: MFRSVATRLSACRGLASNAARKSLTIGLIPGDGIGKEVIPAGKQVLENLNSKHGLSFNFIDLYAGFQTFQETGKALPDETVKVLKEQCQGALFGAVQSPTTKVEGYSSPIVALRREMGLFANVRPVKSVEGEKGKPIDMVIVRENTEDLYIKIEKTYIDKATGTRVADATKRISEIATRRIATIALDIALKRLQTRGQATLTVTHKSNVLSQSDGLFREICKEVYESNKDKYGQIKYNEQIVDSMVYRLFREPQCFDVIVAPNLYGDILSDGAAALVGSLGVVPSANVGPEIVIGEPCHGSAPDIAGKGIANPIATIRSTALMLEFLGHNEAAQDIYKAVDANLREGSIKTPDLGGKASTQQVVDDVLSRL
- rate of NADH oxidation when CO2 was added as HCO3 ([1]; ScHIDH, 2-oxoadipate, NADH): 0.061±0.0090 U
- Km ([1]; ScHIDH, read-out: KM,HCO3): 10 ± 3.7 mM
- rate of NADH oxidation in the presence of 2-oxoadipate [4]: < 0.001 U
- Km [5]: 16.3 mM
- rate for homoisocitrate relative to isocitrate [6]: 216 fold
- concentration of (R)-2-hydroxyadipate after 10 h ([3]; ScHIDH, initially 2 mM NADH and 2 mM 2-oxoadipate, 10 h): no 2-hydroxyadipate accumulation was observed

B3: ScHIDH-R143C: Saccharomyces cerevisiae homoisocitrate dehydrogenase R143C mutant (protein)
chain: B2 chain with R143C
modifications: ScHIDH R143C polypeptide
notes: Saccharomyces cerevisiae homoisocitrate dehydrogenase R143C mutant
- 2-hydroxyadipate dehydrogenase activity in crude bacterial lysates ([7]; 100 μM NADH substrate): did not demonstrate 2-hydroxyadipate dehydrogenase activity
- Km [8]: 0.32 mM
- Km [9]: 11 mM
- Vmax [9]: 0.065 µmol/min/mg
- maximal turnover compared with other ScHIDH mutants ([9]; in vitro data): highest maximal turnover of any ScHIDH mutant assayed
- Enantiomeric Excess [3]: > 99.2%

B4: ScHIDH-R143K: Saccharomyces cerevisiae homoisocitrate dehydrogenase R143K mutant (protein)
chain: B2 chain with R143K
modifications: ScHIDH R143K polypeptide
notes: Saccharomyces cerevisiae homoisocitrate dehydrogenase R143K mutant
- reaction rate relative to ScHIDH-R143H ([7]; 800 μM NADH): 83.0±0.03%
- reaction rate relative to ScHIDH-R143H ([7]; standard conditions of 100 μM NADH): 3.6±0.3%
- Km [8]: 1.1 mM
- Km [9]: 9.4 mM
- Vmax [9]: 0.011 µmol/min/mg
- Enantiomeric Excess [3]: > 92%
